According to US20250215083A1 (JIANGSU HENGRUI PHARMACEUTICALS, published 2025):
No end group written: not given here.

How the values were obtained:
human GPRC5D = human GPRC5D (human, UniProt Q9NZD1 1-345); experiment: cell-based or functional assay
human CCR8 = target: T1, human CCR8 (human, UniProt P51685 1-355); experiment: FACS, CHOK1-human CCR8 cells
T1 construct: on CHOK1-human CCR8 cells
From the text: (§1) To determine whether the GPRC5D/CD3 bispecific antibodies of the present disclosure cross-bind to the GPCRA and GPCRB family members, a flow cytometry assay was used in this test example to measure the capacity of the GPRC5D/CD3 bispecific antibodies to bind to CHOK1-human CCR8 cells expressing CCR8 (the GPCR A family) (constructed with reference to Example 2) and CHOK1-human GIPR cells expressing human GIPR (the GPCR B family) (constructed with reference to Example 2). The specific procedure was as follows: The cells described above were cultured in DMEF/12K culture medium containing 10% FBS, incubated in a 37° C., 5% CO₂ incubator for 2 days, and added to a cell plate at 1×10⁵ cells/well. The plate was centrifuged at 300 g for 5 min and washed once with 1% BSA. The antibodies were serially diluted to 8 concentrations and added to the cell plate at 100 μL/well. The plate was incubated at 4° C. for 1 h and washed once with 1% BSA. […] The plate was washed three times with 1% BSA, PBS was added at 100 μL/well, and plate reading was performed.

human GIPR = target: T2, human GIPR (human, UniProt P48546 22-466); experiment: FACS, CHOK1-human GIPR cells
T2 construct: on CHOK1-human GIPR cells
T2 sequence: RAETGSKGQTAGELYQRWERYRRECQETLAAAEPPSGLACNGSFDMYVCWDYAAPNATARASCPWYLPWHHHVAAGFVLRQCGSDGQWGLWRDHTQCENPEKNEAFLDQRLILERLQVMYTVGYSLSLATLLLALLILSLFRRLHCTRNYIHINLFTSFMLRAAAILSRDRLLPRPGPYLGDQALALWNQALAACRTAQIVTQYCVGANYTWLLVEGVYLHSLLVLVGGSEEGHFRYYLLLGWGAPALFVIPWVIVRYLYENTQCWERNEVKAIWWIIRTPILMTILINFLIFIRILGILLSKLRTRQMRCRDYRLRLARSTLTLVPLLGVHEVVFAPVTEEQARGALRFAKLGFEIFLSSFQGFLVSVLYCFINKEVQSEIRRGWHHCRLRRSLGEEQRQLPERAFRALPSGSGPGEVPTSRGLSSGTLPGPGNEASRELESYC
From the text: as §1

[1] = target: T3, N-terminal peptide of human GPRC5D (human, biotinylated; made with and without intramolecular disulfide bonds); experiment: ELISA, biotinylated peptide on streptavidin
T3 construct: synthesized by GenScript; captured on streptavidin; also called amino-terminal peptide
T3 peptide: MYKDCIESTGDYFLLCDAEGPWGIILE
From the text: (§2) To determine the epitope of GPRC5D to which the GPRC5D/CD3 bispecific antibodies of the present disclosure bind, 4 extracellular domain peptides of human GPRC5D were synthesized, including an amino-terminal peptide (N-terminal peptide), an E2 peptide, an E3 peptide, and an E4 peptide (synthesized by GenScript). The peptides were biotinylated and made into two forms: one lacked intramolecular disulfide bonds and the other included intramolecular disulfide bonds. An Elisa plate (Corning 3590) was coated with streptavidin (sigma, SA101), left to stand at 37° C. for 2 h, and then washed. The non-specific binding sites were blocked with PBS containing 5% skim milk, and the plate was left to stand at 37° C. for 2 h and then washed. The peptides, diluted in PBS containing 1% BSA, were added at 100 μL/well, and the plate was left to stand at 37° C. for 1 h and then washed. Subsequently, the GPRC5D/CD3 antibodies, diluted in PBS containing 1% BSA to 0.003 nM-300 nM, were added at 100 μL/well, and the plate was left to stand at 37° C. for 1 h and then washed. […] TMB (KPL, 5120-0077) was added at 100 μL/well. After 5 min of color development, 1 M H₂SO₄ was added to stop the reaction, and the OD₄₅₀ was measured.

[2] = target: T4, E2 peptide of human GPRC5D (human, also: biotinylated, site not given here, made with and without intramolecular disulfide bonds); experiment: peptide ELISA; note: - indicates no detectable binding
T4 peptide: NQQTAPVRYC
From the text: as §2

[3] = target: T5, E3 peptide of human GPRC5D (human, biotinylated; made with and without intramolecular disulfide bonds); experiment: as above
T5 peptide: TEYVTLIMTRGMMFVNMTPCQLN
From the text: as §2

[4] = target: T6, E4 peptide of human GPRC5D (human, also: biotinylated, site not given here, made with and without intramolecular disulfide bonds); experiment: as above
T6 peptide: RGNPQFQRQPQWDDC
From the text: as §2

| binding result (human CCR8) | binding result (human GIPR) | EC50 [1] [pM] | binding result [2] | binding result [3] | binding result [4] | Binder | EC50 ratio (relative to JNJ-64407564), cytotoxic activity against NCI-H929 (human GPRC5D) | Lysis rate %, cytotoxic activity against NCI-H929 (human GPRC5D) [%] |
| --- | --- | --- | --- | --- | --- | --- | --- | --- |
| no binding | no binding | 392 | no binding (tested: 0.003 nM-300 nM) | no binding (tested: 0.003 nM-300 nM) | no binding (tested: 0.003 nM-300 nM) | F2-0G4S-1 (bispecific antibody, formula 2-0G4S) heavy 1: not shown light 1: DVVMTQTPLSLSVTPGQPASISCRSSQSLVHSQGNTYLYWYLQKPGQSPKLLIYKVSNRFSGVPDRFSGSGSGTDFTLKISRVEAEDVGVYYCSQSTHVPPLTFGQGTKLEIKRTVAAPSVFIFPPSDEQLKSGTASVVCLLNNFYPREAKVQWKVDNALQSGNSQESVTEQDSKDSTYSLSSTLTLSKADYEKHKVYACEVTHQGLSSPVTKSFNRGEC heavy 2: not shown light 2: not shown | 0.57 | 91.5 |
| no binding | no binding | – | – | – | – | F2-1 (bispecific antibody, formula 2) heavy 1: not shown light 1: DVVMTQTPLSLSVTPGQPASISCRSSQSLVHSQGNTYLYWYLQKPGQSPKLLIYKVSNRFSGVPDRFSGSGSGTDFTLKISRVEAEDVGVYYCSQSTHVPPLTFGQGTKLEIKRTVAAPSVFIFPPSDEQLKSGTASVVCLLNNFYPREAKVQWKVDNALQSGNSQESVTEQDSKDSTYSLSSTLTLSKADYEKHKVYACEVTHQGLSSPVTKSFNRGEC heavy 2: not shown light 2: not shown | – | – |
| no binding | no binding | 597 | no binding (tested: 0.003 nM-300 nM) | no binding (tested: 0.003 nM-300 nM) | no binding (tested: 0.003 nM-300 nM) | F4-0G4S-1 (bispecific antibody, formula 4-0G4S) heavy 1: not shown light 1: not shown heavy 2: EVQLVQSGAEVKKPGASVKVSCKVSGYTFTDYPIHWMRQAPGQGLEWMGYVFPRDGSTKYNEKFRVRVTWTADKSTSTVYMELSSLRSEDTAVYYCSRELTAYWGQGTTVTVSSASTKGPSVFPLAPSSKSTSGGTAALGCLVKDYFPEPVTVSWNSGALTSGVHTFPAVLQSSGLYSLSSVVTVPSSSLGTQTYICNVNHKPSNTKVDKKVEPKSCDKTHTCPPCPAPEAAGGPSVFLFPPKPKDTLMISRTPEVTCVVVDVSHEDPEVKFNWYVDGVEVHNAKTKPREEQYNSTYRVVSVLTVLHQDWLNGKEYKCKVSNKALPAPIEKTISKAKGQPREPQVCTLPPSRDELTKNQVSLSCAVKGFYPSDIAVEWESNGQPENNYKTTPPVLDSDGSFFLVSKLTVDKSRWQQGNVFSCSVMHEALHNHYTQKSLSLSPGK light 2: DVVLTQSPLSLPVTLGQPASISCKSSQSLLHSSGKTYLNWLLQRPGQSPRRLIYLVSKLDSGVPDRFSGSGSGTDFTLKISRVEAEDVGVYYCAQGTHFPRTFGGGTKVEIKRTVAAPSVFIFPPSDEQLKSGTASVVCLLNNFYPREAKVQWKVDNALQSGNSQESVTEQDSKDSTYSLSSTLTLSKADYEKHKVYACEVTHQGLSSPVTKSFNRGEC | 0.09 | 136 |
| no binding | no binding | – | – | – | – | F4-6 (bispecific antibody, formula 4) heavy 1: not shown light 1: not shown heavy 2: EVQLVQSGAEVKKPGASVKVSCKVSGYTFTDYPIHWMRQAPGQGLEWMGYVFPRDGSTKYNEKFRVRVTWTADKSTSTVYMELSSLRSEDTAVYYCSRELTAYWGQGTTVTVSSASTKGPSVFPLAPSSKSTSGGTAALGCLVKDYFPEPVTVSWNSGALTSGVHTFPAVLQSSGLYSLSSVVTVPSSSLGTQTYICNVNHKPSNTKVDKKVEPKSCDKTHTCPPCPAPEAAGGPSVFLFPPKPKDTLMISRTPEVTCVVVDVSHEDPEVKFNWYVDGVEVHNAKTKPREEQYNSTYRVVSVLTVLHQDWLNGKEYKCKVSNKALPAPIEKTISKAKGQPREPQVCTLPPSRDELTKNQVSLSCAVKGFYPSDIAVEWESNGQPENNYKTTPPVLDSDGSFFLVSKLTVDKSRWQQGNVFSCSVMHEALHNHYTQKSLSLSPGK light 2: DVVLTQSPLSLPVTLGQPASISCKSSQSLLHSSGKTYLNWLLQRPGQSPRRLIYLVSKLDSGVPDRFSGSGSGTDFTLKISRVEAEDVGVYYCAQGTHFPRTFGGGTKVEIKRTVAAPSVFIFPPSDEQLKSGTASVVCLLNNFYPREAKVQWKVDNALQSGNSQESVTEQDSKDSTYSLSSTLTLSKADYEKHKVYACEVTHQGLSSPVTKSFNRGEC | – | – |
